One test concerns the target recombinant Plasmodium falciparum circumsporozoite protein (CSP) (Plasmodium falciparum) (UniProt P19597). In words: cell-based or functional assay.
317 DE-LS (antibody): the Geo Mean EC50 (ug/ml), ADNKA, Donor 1 was determined as 0.0027 µg/mL; the Geo Mean EC50 (ug/ml), ADNKA, Donor 2 came out at 0.0022 µg/mL; the Geo Mean EC50 (ug/ml), ADNKA, Donor 3 was determined as 0.0276 µg/mL; the Geo Mean EC50 (ug/ml), ADNKA, Donor 4 stood at 0.0111 µg/mL.

For 317 LS (antibody), the Geo Mean EC50 (ug/ml), ADNKA, Donor 1 came to 0.0567 µg/mL; the Geo Mean EC50 (ug/ml), ADNKA, Donor 2 was determined as 0.231 µg/mL; the Geo Mean EC50 (ug/ml), ADNKA, Donor 3 turned out to be 0.151 µg/mL; the Geo Mean EC50 (ug/ml), ADNKA, Donor 4 is 0.0709 µg/mL.

As to CIS43 LS (antibody), the Geo Mean EC50 (ug/ml), ADNKA, Donor 1 amounted to 0.0277 µg/mL; the Geo Mean EC50 (ug/ml), ADNKA, Donor 2 amounted to 0.143 µg/mL; the Geo Mean EC50 (ug/ml), ADNKA, Donor 3 stood at 0.104 µg/mL; the Geo Mean EC50 (ug/ml), ADNKA, Donor 4 was determined as 0.0643 µg/mL.

In the case of L9 LS (antibody), the Geo Mean EC50 (ug/ml), ADNKA, Donor 1 is 0.038 µg/mL; the Geo Mean EC50 (ug/ml), ADNKA, Donor 2 is 0.514 µg/mL; the Geo Mean EC50 (ug/ml), ADNKA, Donor 3 was determined as 0.0887 µg/mL; the Geo Mean EC50 (ug/ml), ADNKA, Donor 4 was found to be 0.0286 µg/mL.

A further test deals with human FcRn (human) (UniProt P55899). In words: SPR, human FcRn, pH 6.0.
Chain of human FcRn (human) (P55899 24-297 limits assumed, form in doubt, chain 1 of 2): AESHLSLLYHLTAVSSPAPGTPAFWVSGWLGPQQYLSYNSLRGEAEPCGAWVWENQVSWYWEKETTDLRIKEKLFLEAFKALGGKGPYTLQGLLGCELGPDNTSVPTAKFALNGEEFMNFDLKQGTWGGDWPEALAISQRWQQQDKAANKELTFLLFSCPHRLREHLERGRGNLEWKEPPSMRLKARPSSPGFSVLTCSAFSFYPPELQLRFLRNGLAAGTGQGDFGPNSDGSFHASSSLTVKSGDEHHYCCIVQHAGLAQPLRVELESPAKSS
Chain of human FcRn (human) (chain, as listed by the source limits assumed, form in doubt, chain 2 of 2): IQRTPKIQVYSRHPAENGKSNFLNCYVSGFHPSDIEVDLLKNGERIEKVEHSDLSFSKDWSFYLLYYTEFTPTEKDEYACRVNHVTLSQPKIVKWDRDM
Consider L9 (antibody), for which the Kd was 174 nM.

Substance hIgG1 WT control (antibody) had a Kd of 102 nM.

Another test deals with recombinant Plasmodium falciparum circumsporozoite protein (CSP) (Plasmodium falciparum) (UniProt P19597). In words: SPR, recombinant CSP; geometric mean, n=2.
Chain of recombinant Plasmodium falciparum circumsporozoite protein (CSP) (Plasmodium falciparum) (P19597 21-375 limits assumed): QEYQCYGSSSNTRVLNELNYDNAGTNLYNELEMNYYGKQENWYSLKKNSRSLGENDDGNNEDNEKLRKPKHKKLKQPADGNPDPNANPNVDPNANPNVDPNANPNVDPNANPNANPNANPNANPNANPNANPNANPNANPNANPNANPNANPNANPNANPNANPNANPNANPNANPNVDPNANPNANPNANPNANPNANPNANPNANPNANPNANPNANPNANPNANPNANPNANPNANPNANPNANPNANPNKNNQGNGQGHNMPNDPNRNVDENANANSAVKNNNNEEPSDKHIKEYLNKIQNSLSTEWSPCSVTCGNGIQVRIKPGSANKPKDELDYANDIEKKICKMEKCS
Regarding L9 (antibody), the Kd was determined as 0.04 nM.

These data come from patent publication US20250296995A1.
